Measurements taken from the supplement of paper PMC10126150.
± gives the standard deviation of the averaged measurements.
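Note: ATP exposure 15 min at 22 °C before imaging.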

These sequences were tested on ATP (assay: switch fluorescence ratio, 500 uM ATP over buffer (Cy3 cluster intensity, sum of 5 cycles each) (fold (ratio)); higher = stronger signal-on switching upon ATP binding; sequences stand for … in TCGTCGGCAGCGTCAGATGTGTATAAGAGACAGTTTTTTTTTTTTTTTTTTTTTTTTT…TC). Conditions: aptamer strand: ATP DNA aptamer (quencher-CACCTGGGGGAGTATTGCGGAGGAAGG + anchor), 100 nM annealed; ATP concentration: 500 uM.
In short: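 The fluorescence ratio divides summed target-cycle Cy3 intensity by summed buffer-cycle Cy3 intensity for each cluster and is averaged per switch-domain sequence. Cy3-labelled switching-strand clusters on a modified Illumina MiSeq flow-cell were annealed to 100 nM quencher-labelled ATP aptamer, then imaged in selection buffer and again after 15 min with 500 uM ATP at 22 °C. Five such cycles were run, with NaOH stripping and re-annealing between them, and clusters outside 100-1000 RFU were excluded.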
TGGGCG showed a switch fluorescence ratio of 0.994 ± 0.018.
For TGGGCGAATG, the switch fluorescence ratio was 0.9946 ± 0.0058.
Sequence TGGGCGGGGC has a switch fluorescence ratio of 0.998 ± 0.018.
TGGGCGGGGG was tested, and the switch fluorescence ratio was 1.03 ± 0.036.
TGGGCGGTCT gave a switch fluorescence ratio of 1.03 ± 0.039.
For TGGGCTCCTT, the switch fluorescence ratio was 1 ± 0.043.
With TGGGCTGCTT the switch fluorescence ratio was 0.965 ± 0.017.
For TGGGGAAAAC, the switch fluorescence ratio was 1.02 ± 0.051.
In the case of TGGGGAAATA, the switch fluorescence ratio is reported as 1.41 ± 0.57.
In the case of TGGGGAACTT, the switch fluorescence ratio is reported as 1.03 ± 0.041.
TGGGGAATAA was tested, and the switch fluorescence ratio was 1.01 ± 0.022.
TGGGGACGGG gave a switch fluorescence ratio of 1 ± 0.046.
In the case of TGGGGACTTT, the switch fluorescence ratio is reported as 1.04 ± 0.045.
TGGGGAGAAC gave a switch fluorescence ratio of 1.055 ± 0.0077.
Work on TGGGGATACT yielded a switch fluorescence ratio of 1.04 ± 0.036.
TGGGGATAGC was tested, and the switch fluorescence ratio was 1.02 ± 0.053.
Work on TGGGGATCAC yielded a switch fluorescence ratio of 1.01 ± 0.071.
For TGGGGATGGG, the switch fluorescence ratio was 0.996 ± 0.029.
In the case of TGGGGATGGT, the switch fluorescence ratio is reported as 0.991 ± 0.062.
In the case of TGGGGATTGT, the switch fluorescence ratio is reported as 0.968 ± 0.023.
With TGGGGCAAGG the switch fluorescence ratio was 1.04 ± 0.031.
TGGGGCACGG showed a switch fluorescence ratio of 1.09 ± 0.19.
Work on TGGGGCCTTT yielded a switch fluorescence ratio of 0.9981 ± 0.0045.
TGGGGCTAAT gave a switch fluorescence ratio of 1.02 ± 0.034.
With TGGGGCTCTT the switch fluorescence ratio was 1 ± 0.013.
TGGGGCTTTG gave a switch fluorescence ratio of 1.03 ± 0.026.
TGGGGGACGC was tested, and the switch fluorescence ratio was 1.08 ± 0.045.
In the case of TGGGGGACTC, the switch fluorescence ratio is reported as 0.988 ± 0.023.
Sequence TGGGGGAGG has a switch fluorescence ratio of 0.9974 ± 0.0058.
TGGGGGAGGC showed a switch fluorescence ratio of 0.973 ± 0.042.
TGGGGGAGTG showed a switch fluorescence ratio of 0.985 ± 0.024.
Work on TGGGGGATAT yielded a switch fluorescence ratio of 1.05 ± 0.052.
With TGGGGGATTT the switch fluorescence ratio was 1.27 ± 0.74.
For TGGGGGCACG, the switch fluorescence ratio was 1 ± 0.026.
Sequence TGGGGGCCAT has a switch fluorescence ratio of 0.999 ± 0.014.
TGGGGGCCGA was tested, and the switch fluorescence ratio was 1.049 ± 0.0034.
TGGGGGCTAT was tested, and the switch fluorescence ratio was 0.989 ± 0.053.
TGGGGGCTTA was tested, and the switch fluorescence ratio was 0.99 ± 0.059.
TGGGGGCTTC was tested, and the switch fluorescence ratio was 0.9896 ± 0.0091.
TGGGGGGAAA gave a switch fluorescence ratio of 1.01 ± 0.054.
Sequence TGGGGGGAGC has a switch fluorescence ratio of 1 ± 0.022.
Work on TGGGGGGATA yielded a switch fluorescence ratio of 0.994 ± 0.045.
In the case of TGGGGGGCAG, the switch fluorescence ratio is reported as 0.969 ± 0.017.
In the case of TGGGGGGCAT, the switch fluorescence ratio is reported as 1.07 ± 0.19.
With TGGGGGGCTG the switch fluorescence ratio was 0.983 ± 0.048.
Sequence TGGGGGGGCG has a switch fluorescence ratio of 0.998 ± 0.04.
Sequence TGGGGGGGGC has a switch fluorescence ratio of 1.01 ± 0.034.
TGGGGGGGGT was tested, and the switch fluorescence ratio was 1.02 ± 0.18.
Work on TGGGGGGGTA yielded a switch fluorescence ratio of 0.991 ± 0.026.
TGGGGGGTCC was tested, and the switch fluorescence ratio was 1.01 ± 0.039.
For TGGGGGGTGA, the switch fluorescence ratio was 0.997 ± 0.049.
TGGGGGTAAC showed a switch fluorescence ratio of 1.1 ± 0.18.
With TGGGGGTACT the switch fluorescence ratio was 1.01 ± 0.011.
TGGGGGTATC was tested, and the switch fluorescence ratio was 0.978 ± 0.024.
Sequence TGGGGGTCGC has a switch fluorescence ratio of 1.01 ± 0.019.
Work on TGGGGGTGAA yielded a switch fluorescence ratio of 1.02 ± 0.018.
TGGGGGTGAC gave a switch fluorescence ratio of 1.04 ± 0.038.
For TGGGGGTGCT, the switch fluorescence ratio was 1 ± 0.013.
For TGGGGGTTAG, the switch fluorescence ratio was 1.01 ± 0.021.
In the case of TGGGGGTTGA, the switch fluorescence ratio is reported as 1.01 ± 0.028.
TGGGGTAAAG showed a switch fluorescence ratio of 1.01 ± 0.033.
With TGGGGTAAGG the switch fluorescence ratio was 1.01 ± 0.022.
With TGGGGTAGGG the switch fluorescence ratio was 0.998 ± 0.026.
TGGGGTAGTG was tested, and the switch fluorescence ratio was 1.01 ± 0.025.
TGGGGTATAG was tested, and the switch fluorescence ratio was 1.01 ± 0.018.
Sequence TGGGGTCAAG has a switch fluorescence ratio of 0.991 ± 0.01.
Work on TGGGGTCTAG yielded a switch fluorescence ratio of 0.969 ± 0.01.
TGGGGTCTGG was tested, and the switch fluorescence ratio was 0.976 ± 0.026.
TGGGGTCTGT showed a switch fluorescence ratio of 0.993 ± 0.02.
For TGGGGTGCAG, the switch fluorescence ratio was 1.03 ± 0.017.
TGGGGTGCAT showed a switch fluorescence ratio of 0.993 ± 0.051.
TGGGGTGTTT gave a switch fluorescence ratio of 0.983 ± 0.045.
TGGGGTTATA was tested, and the switch fluorescence ratio was 1.02 ± 0.023.
With TGGGGTTGGT the switch fluorescence ratio was 0.993 ± 0.018.
TGGGGTTGTC was tested, and the switch fluorescence ratio was 0.993 ± 0.034.
Sequence TGGGGTTTGC has a switch fluorescence ratio of 0.991 ± 0.032.
For TGGGTAAGGT, the switch fluorescence ratio was 0.993 ± 0.028.
In the case of TGGGTAATCA, the switch fluorescence ratio is reported as 0.981 ± 0.036.
TGGGTAGAAA showed a switch fluorescence ratio of 0.975 ± 0.032.
TGGGTAGGCG showed a switch fluorescence ratio of 1.02 ± 0.016.
TGGGTATAAA gave a switch fluorescence ratio of 0.976 ± 0.029.
TGGGTATAAC was tested, and the switch fluorescence ratio was 1 ± 0.018.
TGGGTATACG showed a switch fluorescence ratio of 1.01 ± 0.049.
For TGGGTATATT, the switch fluorescence ratio was 0.987 ± 0.011.
Sequence TGGGTATGT has a switch fluorescence ratio of 1.03 ± 0.0087.
